We go through ten molecules from patent publication US20130210709A1 (ANCHOR THERAPEUTICS, published 2013).

Ends that are not written are not given here. * marks the point of attachment. Palmitoyl = CCCCCCCCCCCCCCCC(=O)*; NHhexadecyl = CCCCCCCCCCCCCCCCN*

In the test the target is CXCR4 receptor (human, UniProt P61073 1-352). The experiment in a line: cell-based or functional assay.
Sequence of CXCR4 receptor (P61073 whole entry): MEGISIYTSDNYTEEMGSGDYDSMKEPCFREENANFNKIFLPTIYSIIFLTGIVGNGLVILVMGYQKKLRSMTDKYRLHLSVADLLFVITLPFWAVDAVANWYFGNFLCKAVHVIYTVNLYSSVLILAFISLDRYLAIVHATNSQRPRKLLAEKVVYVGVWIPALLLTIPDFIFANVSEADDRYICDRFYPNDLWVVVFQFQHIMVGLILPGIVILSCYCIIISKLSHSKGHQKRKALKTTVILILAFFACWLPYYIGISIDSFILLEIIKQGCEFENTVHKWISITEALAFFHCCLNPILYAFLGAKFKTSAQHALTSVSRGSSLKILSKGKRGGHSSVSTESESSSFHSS

B1: CXCR4 i1 loop compound 54 (peptide)
peptide: MGYQKKLRSMTDKYRLHL-NH2
modifications: not fully specified (N-terminus); also: N-terminal T-L: Myr, dual lipid backbone
For the molecule B1, the “Peak Ratio, CHTX, CEM, 1.0 uM” value came out at 1.
Turning to MGYQKKLRSMTD-NH2 (not fully specified (N-terminus); also: further groups not given here) [CXCR4 i1 loop compound 33], the “Peak Ratio, CHTX, CEM, 1.0 uM” value worked out at 1.

B2: CXCR4 i1 loop compound 36 (peptide)
peptide: Palmitoyl-MGYQKKLRSMTDK-NH2
SMILES: CCCCCCCCCCCCCCCC(=O)N[C@@H](CCSC)C(=O)NCC(=O)N[C@@H](Cc1ccc(O)cc1)C(=O)N[C@@H](CCC(N)=O)C(=O)N[C@@H](CCCCN)C(=O)N[C@@H](CCCCN)C(=O)N[C@@H](CC(C)C)C(=O)N[C@@H](CCCNC(=N)N)C(=O)N[C@@H](CO)C(=O)N[C@@H](CCSC)C(=O)N[C@H](C(=O)N[C@@H](CC(=O)O)C(=O)N[C@@H](CCCCN)C(N)=O)[C@@H](C)O
As for B2, the “AUC (% of), CHTX, CEM, 1.0 uM” value was 102%; the “Max (% of), CHTX, CEM, 1.0 uM” value came to 119%; the “Peak Ratio, CHTX, CEM, 1.0 uM” value is 0.2; the “Peak Ratio, CHTX, SUP B15, 1.0 uM” value worked out at 0.2.

B3: CXCR4 i1 loop compound 39 (peptide)
peptide: Palmitoyl-MGYQKKLRSMTDKYRLHL-NH2
SMILES: CCCCCCCCCCCCCCCC(=O)N[C@@H](CCSC)C(=O)NCC(=O)N[C@@H](Cc1ccc(O)cc1)C(=O)N[C@@H](CCC(N)=O)C(=O)N[C@@H](CCCCN)C(=O)N[C@@H](CCCCN)C(=O)N[C@@H](CC(C)C)C(=O)N[C@@H](CCCNC(=N)N)C(=O)N[C@@H](CO)C(=O)N[C@@H](CCSC)C(=O)N[C@H](C(=O)N[C@@H](CC(=O)O)C(=O)N[C@@H](CCCCN)C(=O)N[C@@H](Cc1ccc(O)cc1)C(=O)N[C@@H](CCCNC(=N)N)C(=O)N[C@@H](CC(C)C)C(=O)N[C@@H](Cc1c[nH]cn1)C(=O)N[C@@H](CC(C)C)C(N)=O)[C@@H](C)O
For B3, the “AUC (% of), CHTX, CEM, 1.0 uM” value is 37.5%; the “AUC (% of), CHTX, SUP B-15, 1.0 uM” value came out at 47.4%; the “Max (% of), CHTX, CEM, 1.0 uM” value was 59.7%; the “Max (% of), CHTX, SUP B-15, 1.0 uM” value stood at 37.6%. Further, the “Peak Ratio, CHTX, CEM, 1.0 uM” value is 0.04 and the “Peak Ratio, CHTX, SUP B-15, 1.0 uM” value was 0.2.

B4: CXCR4 i1 loop compound 69 (peptide)
peptide: Palmitoyl-SGYQKKLRSSTD-NH2
SMILES: CCCCCCCCCCCCCCCC(=O)N[C@@H](CO)C(=O)NCC(=O)N[C@@H](Cc1ccc(O)cc1)C(=O)N[C@@H](CCC(N)=O)C(=O)N[C@@H](CCCCN)C(=O)N[C@@H](CCCCN)C(=O)N[C@@H](CC(C)C)C(=O)N[C@@H](CCCNC(=N)N)C(=O)N[C@@H](CO)C(=O)N[C@@H](CO)C(=O)N[C@H](C(=O)N[C@@H](CC(=O)O)C(N)=O)[C@@H](C)O
Turning to B4, the “AUC (% of), CHTX, CEM, 1.0 uM” value worked out at 100%; the “Max (% of), CHTX, CEM, 1.0 uM” value was 93.1%; the “Peak Ratio, CHTX, CEM, 1.0 uM” value is 1.

B5: CXCR4 i1 loop compound 35 (peptide)
peptide: Palmitoyl-VMGYQKKLRSMTD-NH2
SMILES: CCCCCCCCCCCCCCCC(=O)N[C@H](C(=O)N[C@@H](CCSC)C(=O)NCC(=O)N[C@@H](Cc1ccc(O)cc1)C(=O)N[C@@H](CCC(N)=O)C(=O)N[C@@H](CCCCN)C(=O)N[C@@H](CCCCN)C(=O)N[C@@H](CC(C)C)C(=O)N[C@@H](CCCNC(=N)N)C(=O)N[C@@H](CO)C(=O)N[C@@H](CCSC)C(=O)N[C@H](C(=O)N[C@@H](CC(=O)O)C(N)=O)[C@@H](C)O)C(C)C
Regarding B5, the “AUC (% of), CHTX, CEM, 1.0 uM” value was found to be 57.9%; the “AUC (% of), CHTX, SUP B-15, 1.0 uM” value stood at 31.7%; the “Max (% of), CHTX, CEM, 1.0 uM” value was determined as 57%; the “Max (% of), CHTX, SUP B-15, 1.0 uM” value was determined as 49.3%. For the same molecule, the “Peak Ratio, CHTX, CEM, 1.0 uM” value came to 1 and the “Peak Ratio, CHTX, SUP B-15, 1.0 uM” value is 0.2.

B6: CXCR4 i1 loop compound 55 (peptide)
peptide: Palmitoyl-MGYQKKLRSMTDKYRLHLSV-NH2
SMILES: CCCCCCCCCCCCCCCC(=O)N[C@@H](CCSC)C(=O)NCC(=O)N[C@@H](Cc1ccc(O)cc1)C(=O)N[C@@H](CCC(N)=O)C(=O)N[C@@H](CCCCN)C(=O)N[C@@H](CCCCN)C(=O)N[C@@H](CC(C)C)C(=O)N[C@@H](CCCNC(=N)N)C(=O)N[C@@H](CO)C(=O)N[C@@H](CCSC)C(=O)N[C@H](C(=O)N[C@@H](CC(=O)O)C(=O)N[C@@H](CCCCN)C(=O)N[C@@H](Cc1ccc(O)cc1)C(=O)N[C@@H](CCCNC(=N)N)C(=O)N[C@@H](CC(C)C)C(=O)N[C@@H](Cc1c[nH]cn1)C(=O)N[C@@H](CC(C)C)C(=O)N[C@@H](CO)C(=O)N[C@H](C(N)=O)C(C)C)[C@@H](C)O
With B6, the “Peak Ratio, CHTX, CEM, 1.0 uM” value was found to be 0.2.

B7: CXCR4 i1 loop compound 49 (peptide)
peptide: Palmitoyl-MGYQKKLRSMTDKYRI-NH2
SMILES: CCCCCCCCCCCCCCCC(=O)N[C@@H](CCSC)C(=O)NCC(=O)N[C@@H](Cc1ccc(O)cc1)C(=O)N[C@@H](CCC(N)=O)C(=O)N[C@@H](CCCCN)C(=O)N[C@@H](CCCCN)C(=O)N[C@@H](CC(C)C)C(=O)N[C@@H](CCCNC(=N)N)C(=O)N[C@@H](CO)C(=O)N[C@@H](CCSC)C(=O)N[C@H](C(=O)N[C@@H](CC(=O)O)C(=O)N[C@@H](CCCCN)C(=O)N[C@@H](Cc1ccc(O)cc1)C(=O)N[C@@H](CCCNC(=N)N)C(=O)N[C@H](C(N)=O)[C@@H](C)CC)[C@@H](C)O
Regarding B7, the “AUC (% of), CHTX, CEM, 1.0 uM” value was found to be 50.9%; the “Max (% of), CHTX, CEM, 1.0 uM” value was 62.7%; the “Peak Ratio, CHTX, CEM, 1.0 uM” value worked out at 0.2.

B8: CXCR4 i1 loop compound 37 (peptide)
peptide: Palmitoyl-MGYQKKLRSMTDKY-NH2
SMILES: CCCCCCCCCCCCCCCC(=O)N[C@@H](CCSC)C(=O)NCC(=O)N[C@@H](Cc1ccc(O)cc1)C(=O)N[C@@H](CCC(N)=O)C(=O)N[C@@H](CCCCN)C(=O)N[C@@H](CCCCN)C(=O)N[C@@H](CC(C)C)C(=O)N[C@@H](CCCNC(=N)N)C(=O)N[C@@H](CO)C(=O)N[C@@H](CCSC)C(=O)N[C@H](C(=O)N[C@@H](CC(=O)O)C(=O)N[C@@H](CCCCN)C(=O)N[C@@H](Cc1ccc(O)cc1)C(N)=O)[C@@H](C)O
As to B8, the “AUC (% of), CHTX, CEM, 1.0 uM” value came out at 92.3%; the “AUC (% of), CHTX, SUP B-15, 1.0 uM” value came to 63.5%; the “Max (% of), CHTX, CEM, 1.0 uM” value came out at 97.8%; the “Max (% of), CHTX, SUP B-15, 1.0 uM” value worked out at 91.1%. Also, the “Peak Ratio, CHTX, CEM, 1.0 uM” value stood at 0.04 and the “Peak Ratio, CHTX, SUP B-15, 1.0 uM” value came out at 0.2.

B9: CXCR4 i1 loop compound 59 (peptide)
peptide: Ac-MGYQKKLRSMTDK-NHhexadecyl
SMILES: CCCCCCCCCCCCCCCCNC(=O)[C@H](CCCCN)NC(=O)[C@H](CC(=O)O)NC(=O)[C@@H](NC(=O)[C@H](CCSC)NC(=O)[C@H](CO)NC(=O)[C@H](CCCNC(=N)N)NC(=O)[C@H](CC(C)C)NC(=O)[C@H](CCCCN)NC(=O)[C@H](CCCCN)NC(=O)[C@H](CCC(N)=O)NC(=O)[C@H](Cc1ccc(O)cc1)NC(=O)CNC(=O)[C@H](CCSC)NC(C)=O)[C@@H](C)O
On to B9, for which the “AUC (% of), CHTX, CEM, 1.0 uM” value is 69%; the “AUC (% of), CHTX, CEM, 1.0 um” value stood at 51.6%; the “Max (% of), CHTX, CEM, 1.0 uM” value was found to be 84.5%; the “Max (% of), CHTX, CEM, 1.0 um” value came to 59.8%. The “Peak Ratio, CHTX, CEM, 1.0 uM” value is 1 and the “Peak Ratio, CHTX, CEM, 1.0 um” value was 1.
